Among the data in patent US20210061859A1, “NTCP Inhibitor” (The University of Tokyo, priority 2018, published 2021) are Kd values, retold here.

Sequences and labels used below:
T1: His-tagged recombinant NTCP protein (human sodium taurocholate cotransporting polypeptide) (human), Q14973
T1 chain: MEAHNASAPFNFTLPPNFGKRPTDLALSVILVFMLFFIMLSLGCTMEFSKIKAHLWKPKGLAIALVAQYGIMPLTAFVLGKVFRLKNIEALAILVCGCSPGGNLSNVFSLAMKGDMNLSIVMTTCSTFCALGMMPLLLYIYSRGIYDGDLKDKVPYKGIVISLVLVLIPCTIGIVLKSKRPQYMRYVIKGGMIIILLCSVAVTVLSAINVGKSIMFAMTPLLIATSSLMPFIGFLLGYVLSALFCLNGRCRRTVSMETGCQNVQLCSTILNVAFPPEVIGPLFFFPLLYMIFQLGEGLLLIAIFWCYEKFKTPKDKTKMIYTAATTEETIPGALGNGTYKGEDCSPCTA

For the experiment, the target named is T1, His-tagged recombinant NTCP protein …. The experiment is described as follows: SPR (Biacore T200), single-cycle kinetics, His-NTCP on Ni2+-NTA chip, peptide as analyte, 1:1 model. For orientation: Surface plasmon resonance follows binding to a sensor surface in real time, without labels.
For the molecule YTWTWNSAFLYVYCT (modifications not checked) [WL6], the dissociation constant Kd – broadly, the concentration at which binding is half-saturated – amounted to 36 nM.
Next, YLYLWTWPNTSYAYNVCG (modifications not checked) [NTCP-L4]: 30 nM.
For YWWAINPHIHVFTWPCG (modifications not checked) [NTCP-D2] the value was 14 nM; for YLYTWTWHSNWTVTSLCG (modifications not checked) [NTCP-L1], 21 nM; for YTWNTHHYYIWLNCG (modifications not checked) [NTCP-L5], 4 nM.
Next, YLWIFHQNWYTFDLGCG (modifications not checked) [NTCP-L3]: 13 nM; YTWIWGGLYVVYFPCT (modifications not checked) [WD2]: 14 nM; YTFTYAQIWIWYYGCT (modifications not checked) [WD4]: 11 nM.
Consider YTWTWHSAYLYVFCT (modifications not checked) [WL3], for which the dissociation constant (Kd) amounted to 57 nM.
Next, YALIWTWSQYYQYYSCT (modifications not checked) [WD3]: 15 nM; YTWTWQNSFIWIYCT (modifications not checked) [WL5]: 10 nM.
For YILVYPELHLFLLYSCG (modifications not checked) [NTCP-D4] the value was 2270 nM; for YNYIYYPSIHIFYLCT (modifications not checked) [PD1], 149 nM.
For YHYWYPEWNTALYIWPCG (modifications not checked) [NTCP-D3] the value was 50 nM; for YVWLLWAERSWFLDLGCG (modifications not checked) [NTCP-L2], 374 nM; for YTYKYSGIWIWIWCT (modifications not checked) [WL1], 360 nM.
